Source: patent US20230340081A1 (Hoffmann-La Roche, published 2023)
Positions count from the first letter of the chain named.

T1: consensus S-HBs protein of HBV genotype E (ConsHBAg_E) (hepatitis B virus genotype E (consensus), UniProt Q69603 174-399)
T1 construct: also called genotype E S-HBs
T1 chain: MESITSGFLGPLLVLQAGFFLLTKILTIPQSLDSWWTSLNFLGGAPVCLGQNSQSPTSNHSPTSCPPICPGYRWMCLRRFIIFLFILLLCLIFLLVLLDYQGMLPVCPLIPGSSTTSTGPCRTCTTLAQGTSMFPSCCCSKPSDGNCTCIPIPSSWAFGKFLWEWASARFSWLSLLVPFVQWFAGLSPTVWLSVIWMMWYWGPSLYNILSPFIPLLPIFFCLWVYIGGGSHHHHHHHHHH

T2: consensus S-HBs protein of HBV genotype I (ConsHBAg_I) (hepatitis B virus genotype I (consensus), UniProt P31873 175-400)
T2 construct: also called genotype I S-HBs
T2 chain: T1 chain with S3N, R122K, L127P, T131N, F134Y, S140T, S143T, G159A, F161Y, A184V

B1: Bc1.180 (antibody)
heavy: not shown
light: EIVLTQSPGTLSLSPGNRATLSCRASQSVTSNYFAWYQHKPGQAPRVLIYGASSRATGIPDRFSGSGSGTDFTLTISRLEPEDFAVYYCQQFGSLPYTFGQGTKLEIKRTVAAPSVFIFPPSDEQLKSGTASVVCLLNNFYPREAKVQWKVDNALQSGNSQESVTEQDSKDSTYSLSSTLTLSKADYEKHKVYACEVTHQGLSSPVTKSFNRGEC
B2: Bv4.104 (antibody)
heavy: not shown
light: QSALTQPASVSGSPGQSITISCTGTSSDVGNYKSVSWYQHHPGKAPKFMIYEGTQRPSGVSNRFSGSKSGNTASLTISGLQAEDEAHYYCCSYAGSSTWLFGGGTKLTVLGQPKAAPSVTLFPPSSEELQANKATLVCLISDFYPGAVTVAWKADSSPVKAGVETTTPSKQSNNKYAASSYLSLTPEQWKSHRSYSCQVTHEGSTVEKTVAPTECS
notes: also called PIBv4.104
B3: Bc4.204 (antibody, human IgG1, lambda)
heavy: not shown
light: QSALTQPRSVSGSPGQSVTISCIGTNSDFGRYDYVSWYQQHPDKAPKLLIYDVSQRPSGVPDRFSGSKSGYTASLIISGLQADDEAEYFCCSYAGSFNLVFGGGTKVTVLGQPKAAPSVTLFPPSSEELQANKATLVCLISDFYPGAVTVAWKADSSPVKAGVETTTPSKQSNNKYAASSYLSLTPEQWKSHRSYSCQVTHEGSTVEKTVAPTECS

Tests used:
[1] = biological target: HBV genotype D viruses (produced in HepG2.2.15 cell culture supernatant) (hepatitis B virus genotype D); experiment: cell-based or functional assay
[2] = biological target: T3, Adw S-HBs protein (adw HBsAg particles, GenHevac (Adw)) (hepatitis B virus, adw subtype); experiment: ELISA, AUC of binding curve; set-up: unit not given beside the values
T3 construct: also called GenHevac-B

[3] = biological target: T4, Ayw S-HBs protein (ayw HBsAg particles, Engerix-B (Ayw)) (hepatitis B virus, ayw subtype); experiment: ELISA, AUC of binding curve; set-up: unit not given beside the values
[4] = biological target: T3, Adw S-HBs protein (adw HBsAg particles, …); experiment: ELISA on recombinant HBV vaccine particles
[5] = biological target: T4, Ayw S-HBs protein (ayw HBsAg particles, …); experiment: ELISA on recombinant HBV vaccine particles
[6] = biological target: T5, consensus S-HBs protein of HBV genotype A (ConsHBAg_A) (hepatitis B virus genotype A (consensus), UniProt P03141 175-400); experiment: flow cytometry, S-HBs-transfected 293-F cells
T5 construct: also called genotype A S-HBs

[7] = biological target: T6, consensus S-HBs protein of HBV genotype B (ConsHBAg_B) (hepatitis B virus genotype B (consensus), UniProt Q9PWW3 175-400); experiment: flow cytometry, S-HBs-transfected 293-F cells
T6 construct: also called genotype B S-HBs

[8] = biological target: T7, consensus S-HBs protein of HBV genotype C (ConsHBAg_C) (hepatitis B virus genotype C (consensus), UniProt P03140 175-400); experiment: flow cytometry, S-HBs-transfected 293-F cells
T7 construct: also called genotype C S-HBs

[9] = biological target: T8, consensus S-HBs protein of HBV genotype D (ConsHBAg_D) (hepatitis B virus genotype D (consensus), UniProt P03138 164-389); experiment: flow cytometry, S-HBs-transfected 293-F cells
T8 construct: also called genotype D S-HBs; ConsD S-HBs

[10] = biological target: T1, consensus S-HBs protein of HBV genotype …; experiment: flow cytometry, S-HBs-transfected 293-F cells
[11] = biological target: T9, consensus S-HBs protein of HBV genotype F (ConsHBAg_F) (hepatitis B virus genotype F (consensus), UniProt Q05496 175-400); experiment: flow cytometry, S-HBs-transfected 293-F cells
T9 construct: also called genotype F S-HBs
T9 sequence (Q05496 175-400, tags left off): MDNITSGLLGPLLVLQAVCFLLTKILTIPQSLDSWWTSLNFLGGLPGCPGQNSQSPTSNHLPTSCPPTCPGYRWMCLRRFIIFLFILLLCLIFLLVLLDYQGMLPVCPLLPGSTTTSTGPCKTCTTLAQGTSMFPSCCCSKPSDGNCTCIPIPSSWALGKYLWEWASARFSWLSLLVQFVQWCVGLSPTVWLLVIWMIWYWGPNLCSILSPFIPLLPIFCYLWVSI

[12] = biological target: T10, consensus S-HBs protein of HBV genotype G (ConsHBAg_G) (hepatitis B virus genotype G (consensus), UniProt Q9IBI3 174-399); experiment: flow cytometry, S-HBs-transfected 293-F cells
T10 construct: also called genotype G S-HBs

[13] = biological target: T11, consensus S-HBs protein of HBV genotype H (ConsHBAg_H) (hepatitis B virus genotype H (consensus), UniProt Q8JMZ6 175-400); experiment: flow cytometry, S-HBs-transfected 293-F cells
T11 construct: also called genotype H S-HBs
T11 sequence (Q8JMZ6 175-400, tags left off): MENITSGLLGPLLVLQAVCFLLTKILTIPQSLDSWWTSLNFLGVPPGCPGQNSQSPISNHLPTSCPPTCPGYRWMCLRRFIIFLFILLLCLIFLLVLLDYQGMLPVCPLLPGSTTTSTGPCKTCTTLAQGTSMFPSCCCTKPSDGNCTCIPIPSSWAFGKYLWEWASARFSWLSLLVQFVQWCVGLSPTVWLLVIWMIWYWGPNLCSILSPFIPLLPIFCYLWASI

[14] = biological target: T2, consensus S-HBs protein of HBV genotype …; experiment: flow cytometry, S-HBs-transfected 293-F cells
[15] = biological target: genotype D S-HBs mutant protein T126A (hepatitis B virus genotype D, UniProt P03138 164-389); experiment: flow cytometry, S-HBs-transfected 293-F cells
[16] = biological target: genotype D S-HBs mutant protein M133T (hepatitis B virus genotype D, UniProt P03138 164-389); experiment: flow cytometry, S-HBs-transfected 293-F cells
[17] = biological target: genotype D S-HBs mutant protein Y134V (hepatitis B virus genotype D, UniProt P03138 164-389); experiment: flow cytometry, S-HBs-transfected 293-F cells
[18] = biological target: genotype D S-HBs mutant protein G145R (hepatitis B virus genotype D, UniProt P03138 164-389); experiment: flow cytometry, S-HBs-transfected 293-F cells
[19] = biological target: genotype D S-HBs mutant protein N146S (hepatitis B virus genotype D, UniProt P03138 164-389); experiment: flow cytometry, S-HBs-transfected 293-F cells
[20] = biological target: T5, consensus S-HBs protein of HBV genotype …; experiment: flow cytometry on cells expressing genotype-specific S-HBs
[21] = biological target: T6, consensus S-HBs protein of HBV genotype …; experiment: as above
[22] = biological target: T7, consensus S-HBs protein of HBV genotype …; experiment: as above
[23] = biological target: T9, consensus S-HBs protein of HBV genotype …; experiment: as above
[24] = biological target: T10, consensus S-HBs protein of HBV genotype …; experiment: as above
[25] = biological target: T11, consensus S-HBs protein of HBV genotype …; experiment: as above
[26] = biological target: T2, consensus S-HBs protein of HBV genotype …; experiment: as above

Binder	HBV-gD in vitro neutralization (IC50 µg/ml) [1] [µg/mL]	AUC (serotype binding) [2]	AUC (serotype binding) [3]	EC50 [4] [ng/mL]	EC50 [5] [ng/mL]	% of bound S-HBs-expressing cells [6] [%]	% of bound S-HBs-expressing cells [7] [%]	% of bound S-HBs-expressing cells [8] [%]	% of bound S-HBs-expressing cells [9] [%]	% of bound S-HBs-expressing cells [10] [%]	% of bound S-HBs-expressing cells [11] [%]	% of bound S-HBs-expressing cells [12] [%]	% of bound S-HBs-expressing cells [13] [%]	% of bound S-HBs-expressing cells [14] [%]	% of bound S-HBs-expressing cells [15] [%]	% of bound S-HBs-expressing cells [16] [%]	% of bound S-HBs-expressing cells [17] [%]	% of bound S-HBs-expressing cells [18] [%]	% of bound S-HBs-expressing cells [19] [%]	binding result [23]	further results
B1	5e-08	30	23	65.3	310	57	45	43	47	46	42	39	55	22	38	25	25	14	27		
B2		7	37	6580	4.6	1	1	5	73	73	1	1	1	1	64	64	60	54	63	no binding	binding result [20]: no binding; binding result [21]: no binding; binding result [22]: no binding; binding result [24]: no binding; binding result [25]: no binding; binding result [26]: no binding
B3	0.000229	36	36	15.6	15	74	65	65	68	65	0	71	1	58	60	59	57	55	53	no binding	binding result [25]: no binding
